Data on three molecules can be found in US11793825B2, “Biomarkers for predicting responsiveness to decitabine therapy” (The Regents of the University of Michigan, priority 2014, dated 2023).

Test [1] deals with CMML patients. Put plainly: FISM clinical trial cohort of CMML patients treated with Decitabine. The format is in vivo, human. The conditions noted are these: DAC 20 mg/m2/day x 5 days. On the procedure:
To determine whether particular genetic or epigenetic abnormalities are associated with DMTi sensitivity or resistance in this disease a cohort of primary CMML cases was studied. Bone marrow mononuclear cells (BM MNC) were collected at the time of diagnosis from 40 patients with de novo CMML. All patients included in this study were enrolled in a clinical trial of the Fondazione Italiana per le Sindromi Mielodisplastiche (FISM) and treated with DAC single agent as front-line therapy (20 mg/m^2/day×5 days) and response was evaluated after 6 cycles of treatment. Responsive patients (n=20) were defined as those who achieved either complete remission (CR), marrow complete remission (mCR), partial remission (PR) or hematological improvement (HI), as defined by the 2006 International Working Group (IWG) response criteria in myelodysplasia (see, e.g., Cheson, B. D., Blood. 2006; 108(2):419-425). Patients with either stable or progressive disease (SD and PD, respectively) were considered as having primary resistance to DAC (n=20). […] Using MiSeq to sequence DNA isolated from the diagnostic BM MNC targeted re-sequencing of a panel of genes mutated at frequencies greater than 5% in CMML was performed: SRSF2, TET2, ASXL1, NRAS, DNMT3A, RUNX1, U2AF1, TP53, JAK2, KIT, KRAS, SF3B1, EZH2, IDH1, and IDH2. […]

In test [2] the test system is CMML patients. Put plainly: GFM clinical trial cohort of CMML patients treated with Decitabine. The format is in vivo, human. Conditions: DAC 20 mg/m2/day x 5 days. How it is done: In order to independently validate the predictive accuracy of the SVM classifier, a second cohort of patients on which to test its performance was identified. Twenty-eight additional diagnostic CMML specimens from patients enrolled in a clinical trial from the Groupe Francophone des Myelodysplasies (GFM), all of whom had been treated with the same DAC regimen of 20 mg/m^2/day×5 days were collected and subjected to ERRBS (Table 2, Table 3). Specimens in this cohort consisted of sorted monocytes from peripheral blood (PB) and the cohort included 12 responder and 16 non-responder patients. The SVM classifier was applied blindly to these samples, without any prior knowledge of the therapeutic response labels for the cohort. Due to the stochastic nature of ERRBS, the CpG coverage is never identical across all samples, thereby leading to missing values for some regions of interest. In effect, only 6 out of the 21 features were present in all 28 GFM cohort samples. Therefore, an SVM classifier was built on these six shared features by training it on the 39 samples of the FISM cohort and then applying the trained classifier on the GFM cohort. As shown in FIG. 8D and FIG. 11B, despite this limitation the 6-feature classifier was still capable of correctly predicting response for 20/28 patients in the GFM cohort (accuracy=71%). […]

Test [3] relates to primary human CD34+ cells. Nature of the test: CD34+ cell liquid culture, live cell number and viability by trypan blue exclusion. The format is cell-based. Conditions: 10 nM DAC daily for 3 days, with or without CXCL4/CXCL7 50 ng/mL each. On the procedure: CD34+ cells were treated with one dose of CXCL4, CXCL7, or both (50 ng/mL each) or vehicle (PBS/0.1% BSA) and daily doses of 10 nM DAC for 3 days. After 3 days, live cell number (A) and viability (B) were assessed by trypan blue exclusion, and apoptosis (C) was analyzed by Annexin V and propodium iodide staining. The results shown are from one representative experiment out of two independent experiments.
Therefore, it was hypothesized that overabundance of CXCL4 and CXCL7 in the bone marrow microenvironment may act to overcome the effects of DAC. To test this, primary human CD34+ cells were cultured for 3 days in vitro with CXCL4 (50 ng/mL), CXCL7 (50 ng/mL) or a combination of both chemokines in either the presence or absence of low-dose DAC (10 nM) and then plated them in methylcellulose to test their clonogenic potential.
(§1) Cell culture and colony forming assays: CD34+ cells were isolated from cryopreserved BM MNC from femoral head specimens using the Miltenyi Biotec CD34 microbead isolation kit (San Diego, CA) per the manufacturer's instructions. For CMML cells, the cryopreserved BM MNC were rapidly thawed at 37° C. and treated with DNAse to prevent cell clumping. […] Live cell number and viability were determined by trypan blue exclusion. […] Colonies were counted after 12 to 15 days.

The subject of test [4] is primary human CD34+ cells. Put plainly: Colony forming assay in methylcellulose. Conditions: chemokine 50 ng/mL (each) plus 10 nM DAC for 3 days. Type of test: cell-based. On the procedure:
(§2) CD34+ cells were treated with one dose of CXCL4, CXCL7, or both (50 ng/mL each) or vehicle (PBS/0.1% BSA) and daily doses of 10 nM DAC for 3 days. After 3 days of in vitro treatment with DAC, the cells were plated in methylcellulose and incubated for 12-15 days before colonies were counted. Data represent mean+standard deviation (SD). […] Shown in the three panels are the results of three independent experiments. […] CMML MNC were treated in vitro for 72 h with 10 nM DAC alone or in the presence of 50 ng/mL of CXCL4, CXCL7, or both. Data represent mean+standard deviation (SD).
as §1, with “clumping. Cells were plated in pre-stimulation media (IMDM with 20% BIT (Stem Cell Technologies, Vancouver, BC, Canada), IL-6 (20 ng/mL), SCF (100 ng/ml), TPO (100 ng/mL), FLT3L (10 ng/mL); Peprotech, Rocky Hill, N.J.) and recovered overnight.” for “clumping.”

Test [5] has as its system primary CMML cells (BM MNC). Put plainly: Viability of primary CMML BM MNC in liquid culture. Type of test: cell-based, human. Conditions: chemokine 50 ng/mL plus 10 nM DAC, 72 h. How it is done:
as §2
Finally, the ability of CXCL4 and CXCL7 to induce resistance in primary CMML cells was tested. BM MNC from diagnostic specimens collected from 3 patients known to be sensitive to DAC were placed in liquid culture and treated for 72 h with 10 nM DAC in the presence or absence of 50 ng/mL of CXCL4, CXCL7 or a combination of both. Viability was assessed after 72 hours.
Cell culture and colony forming assays: CD34+ cells were isolated from cryopreserved BM MNC from femoral head specimens using the Miltenyi Biotec CD34 microbead isolation kit (San Diego, CA) per the manufacturer's instructions. […] Live cell number and viability were determined by trypan blue exclusion. […] Colonies were counted after 12 to 15 days.

In a further test the test system is bone marrow cells. Conditions: in vitro; cited from earlier work.

“Also recorded” adds a separate entry of the source.

In the case of `Nc1ncn([C@H]2C[C@H](O)[C@@H](CO)O2)c(=O)n1` [DAC, Decitabine], the “Median Survival” value is 13.5 months with CMML patients [1] (non-responders (n=20)), 26.5 months with CMML patients [1] (responders (n=20)), 14.5 months in the test with CMML patients [2] (non-responders (n=16)) and 39 months in the test on CMML patients [2] (responders (n=12)).

B1: CXCL7: chemokine CXCL7 (also known as PPBP), Peprotech, used at 50 ng/mL (protein, UniProt P02775 59-128, looked up)
Neutrophil-activating peptide …: AELRCMCIKTTSGIHPKNIQSLEVIGKGTHCNQVEVIATLKDGRKICLDPDAPRIKKIVQKKLAGDESAD
modifications: Neutrophil-activating peptide 2
notes: chemokine CXCL7 (also known as PPBP), Peprotech, used at 50 ng/mL
Take B1: in test [3], the “cell proliferation (live cell number)” value was “did not affect cell proliferation”. Also, in test [4], the “effect of chemokine on DAC-induced inhibition of colony formation” value is “did not have a significant impact on DAC-induced colony inhibition”. Besides, in test [5], the “effect of chemokine on the DAC-induced decrease in viability of primary CMML cells” value is on record as “abrogated the effect of DAC; also recorded: this effect was lost”. The “chemosensitivity of bone marrow cells to 5-fluorouracil” value with bone marrow cells is “can reduce the chemosensitivity of bone marrow cells to 5-fluorouracil”.

B2: CXCL4: chemokine CXCL4 (also known as PF4), Peprotech, used at 50 ng/mL (protein, UniProt P02776 32-101, looked up)
Platelet factor 4: EAEEDGDLQCLCVKTTSQVRPRHITSLEVIKAGPHCPTAQLIATLKNGRKICLDLQAPLYKKIIKKLLES
In the case of B2, the “cell proliferation (live cell number)” value in test [3] was “did not affect cell proliferation”. Also, the “effect of chemokine on DAC-induced inhibition of colony formation” value in test [4] is “did not have a significant impact on DAC-induced colony inhibition”. Also, in test [5], the “effect of chemokine on the DAC-induced decrease in viability of primary CMML cells” value is listed as “abrogated the effect of DAC; also recorded: this effect was lost”. The “chemosensitivity of bone marrow cells to 5-fluorouracil” value with bone marrow cells is on record as “can reduce the chemosensitivity of bone marrow cells to 5-fluorouracil”.
